In test [1] the target is 20S proteasome (human red blood cell proteasomes) (human). The test can be described thus: competition assay with REGα(N146Y)/REGβ(N135Y) as competitor for the proteasome.
The target is the same in test [2]. The test can be described thus: cell-based or functional assay.

Chain of REGγ (wild-type) (P61289 whole entry): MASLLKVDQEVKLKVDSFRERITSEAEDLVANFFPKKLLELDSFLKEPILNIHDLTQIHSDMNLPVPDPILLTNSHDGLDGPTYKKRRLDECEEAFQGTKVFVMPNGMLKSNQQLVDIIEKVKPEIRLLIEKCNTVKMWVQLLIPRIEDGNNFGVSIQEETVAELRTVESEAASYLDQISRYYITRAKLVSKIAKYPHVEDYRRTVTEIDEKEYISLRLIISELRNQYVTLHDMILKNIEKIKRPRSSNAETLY

The substance REGγ(K188A) (from UniProt P61289 1-254) showed a Relative affinity for proteasome (% of wild-type REGγ) in test [1] of 60. As to REGγ(K188P) (from UniProt P61289 1-254), in test [1], the Relative affinity for proteasome (% of wild-type REGγ) was found to be 40. REGγ(K188R) (from UniProt P61289 1-254) showed a Relative affinity for proteasome (% of wild-type REGγ) in test [1] of 75.

Consider REGγ(K188E) (from UniProt P61289 1-254), for which, in test [2], the rate of CT/PGPH labeling by 125I-YL3-VS, fold over proteasome alone is 11.9 fold and the rate of T-subunit labeling by 125I-YL3-VS, fold over proteasome alone stood at 10.8 fold. In test [1], this substance registered a Relative affinity for proteasome (% of wild-type REGγ) of 90. In the case of “REGγ (wild-type) (from UniProt P61289 1-254)”, in test [2], the half-life of the 49-residue peptide BBC1 with the proteasome stood at 45 min; the rate of CT/PGPH labeling by 125I-YL3-VS, fold over proteasome alone amounted to 4.4 fold; the rate of T-subunit labeling by 125I-YL3-VS, fold over proteasome alone turned out to be 4.7 fold. The Relative affinity for proteasome (% of wild-type REGγ) in test [1] is 100. Substance REGγ(K188S) (from UniProt P61289 1-254) came in with a Relative affinity for proteasome (% of wild-type REGγ) in test [1] of 50.

In test [1], REGγ(K188I) (from UniProt P61289 1-254) had a Relative affinity for proteasome (% of wild-type REGγ) of 60. As for REGγ(K188N) (from UniProt P61289 1-254), in test [1], the Relative affinity for proteasome (% of wild-type REGγ) amounted to 75. In the case of REGγ(K188H) (from UniProt P61289 1-254), the Relative affinity for proteasome (% of wild-type REGγ) in test [1] was 50. In turn, REGγ(K188D) (from UniProt P61289 1-254) had a Relative affinity for proteasome (% of wild-type REGγ) in test [1] of 90.

REGα (from UniProt Q06323 1-249) had a Relative affinity for proteasome (% of wild-type REGγ) in test [1] of 0. For the substance REGγ(K188F) (from UniProt P61289 1-254), in test [1], the Relative affinity for proteasome (% of wild-type REGγ) was 40. The same measure, in the same setting: then REGγ(K188C) (from UniProt P61289 1-254), with 60; and REGγ(K188Q) (from UniProt P61289 1-254), with 75.

Source of the values: patent US20040233833A1, “Methods for identifying compounds with thrapeutic potential for treatment of central Neurodegenerative diseases resulting from abnormal protein or peptide accumulation” (priority 2001, published 2004).
